Measurements: patent US20150258192A1, “COMPOSITIONS AND METHODS FOR PREVENTING OR TREATING CHRONIC LUNG ALLOGRAFT DYSFUNCTION (CLAD) AND IDIOPATHIC PULMONARY FIBROSIS (IPF)” (priority 2014, published 2015)
No end group written: not given here.

Target: T1, Src(1-530)(h) (Homo sapiens, UniProt P12931)
T1 construct: Src(1-530)(h); purchased Millipore
Test: Kinase Profiling Assay
Type: biochemical
Conditions: peptide 100 μM
Method in brief: (§1)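 Scintillation counting quantifies radiolabeled, positively charged substrate retained on a negatively charged filter after kinase reaction with labeled ATP; inhibitor peptide present.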

Sequence | % activity [%]
FAKLAARLYRKALARQLGVAA [MMI-0300] | 23
HRRIKAWLKKIKALARQLGVAA (Mammal) [MMI-0500] | 21
KAFAKLAARLYRKALARQLGVAA [MMI-0400] | 19
YARAAARQARAKALNRQLGVA (Mammal) [MMI-0200] | 75

Target: Ret(h) (Homo sapiens, UniProt P07949)
Test: Kinase Profiling Assay
Type: biochemical
Conditions: peptide 100 μM
Method in brief: as §1

Sequence | % activity [%]
FAKLAARLYRKALARQLGVAA [MMI-0300] | 140
HRRIKAWLKKIKALARQLGVAA (Mammal) [MMI-0500] | 174
KAFAKLAARLYRKALARQLGVAA [MMI-0400] | 145
YARAAARQARAKALARQLGVAA [MMI-0100] | 108
YARAAARQARAKALNRQLGVA (Mammal) [MMI-0200] | 96

Target: T2, Met(Y1248H)(h) (Homo sapiens, UniProt P08581, Y1230H)
T2 construct: purchased Millipore
Test: Kinase Profiling Assay
Type: biochemical
Conditions: peptide 100 μM
Method in brief: as §1

Sequence | % activity [%]
HRRIKAWLKKIKALARQLGVAA (Mammal) [MMI-0500] | 126
KAFAKLAARLYRKALARQLGVAA [MMI-0400] | 63
YARAAARQARAKALARQLGVAA [MMI-0100] | 88
YARAAARQARAKALNRQLGVA (Mammal) [MMI-0200] | 153

Target: T3, Itk(h) (Homo sapiens, UniProt Q08881)
T3 construct: purchased Millipore
T3 sequence (Q08881 1-620): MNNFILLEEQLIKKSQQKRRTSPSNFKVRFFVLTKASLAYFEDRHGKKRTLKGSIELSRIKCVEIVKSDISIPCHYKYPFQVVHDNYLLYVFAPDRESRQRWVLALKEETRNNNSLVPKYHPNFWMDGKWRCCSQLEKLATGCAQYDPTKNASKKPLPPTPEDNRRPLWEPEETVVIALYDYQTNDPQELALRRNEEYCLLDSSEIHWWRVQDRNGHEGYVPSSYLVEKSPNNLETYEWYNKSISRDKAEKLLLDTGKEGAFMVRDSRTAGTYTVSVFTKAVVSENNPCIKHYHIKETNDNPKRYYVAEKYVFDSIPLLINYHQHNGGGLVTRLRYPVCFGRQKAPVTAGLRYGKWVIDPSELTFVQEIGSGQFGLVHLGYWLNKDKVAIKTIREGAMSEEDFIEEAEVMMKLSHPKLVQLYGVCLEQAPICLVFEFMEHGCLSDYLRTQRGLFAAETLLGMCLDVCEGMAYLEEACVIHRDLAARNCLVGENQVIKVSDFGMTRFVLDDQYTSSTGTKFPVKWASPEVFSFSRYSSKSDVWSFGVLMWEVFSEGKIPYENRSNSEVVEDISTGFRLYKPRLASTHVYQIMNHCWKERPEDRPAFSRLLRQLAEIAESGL
Test: Kinase Profiling Assay
Type: biochemical
Conditions: peptide 100 μM
Method in brief: as §1

Sequence | % activity [%]
FAKLAARLYRKALARQLGVAA [MMI-0300] | 77
HRRIKAWLKKIKALARQLGVAA (Mammal) [MMI-0500] | 7
KAFAKLAARLYRKALARQLGVAA [MMI-0400] | 63
YARAAARQARAKALARQLGVAA [MMI-0100] | 99
YARAAARQARAKALNRQLGVA (Mammal) [MMI-0200] | 98

Target: T4, GSK3β(h) (Homo sapiens, UniProt P49841)
T4 construct: purchased Millipore
Test: Kinase Profiling Assay
Type: biochemical
Conditions: peptide 100 μM
Method in brief: as §1

T4 sequence (P49841 whole entry): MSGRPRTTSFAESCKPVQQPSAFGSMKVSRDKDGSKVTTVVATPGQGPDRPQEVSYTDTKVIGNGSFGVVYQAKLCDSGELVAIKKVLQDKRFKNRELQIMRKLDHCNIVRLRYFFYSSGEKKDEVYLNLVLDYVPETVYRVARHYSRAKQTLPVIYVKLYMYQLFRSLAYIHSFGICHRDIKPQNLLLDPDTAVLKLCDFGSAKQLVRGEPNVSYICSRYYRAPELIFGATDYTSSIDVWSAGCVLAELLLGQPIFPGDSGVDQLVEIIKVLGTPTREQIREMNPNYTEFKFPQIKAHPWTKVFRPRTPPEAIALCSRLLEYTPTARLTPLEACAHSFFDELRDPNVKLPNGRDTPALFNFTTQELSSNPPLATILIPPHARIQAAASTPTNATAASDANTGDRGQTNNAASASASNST

Sequence | % activity [%]
FAKLAARLYRKALARQLGVAA [MMI-0300] | 205
HRRIKAWLKKIKALARQLGVAA (Mammal) [MMI-0500] | 238
KAFAKLAARLYRKALARQLGVAA [MMI-0400] | 202
YARAAARQARAKALNRQLGVA (Mammal) [MMI-0200] | 132

Target: cKit(D816H)(h) (Homo sapiens, UniProt P10721, D816H)
Test: Kinase Profiling Assay
Type: biochemical
Conditions: peptide 100 μM
Method in brief: as §1

Sequence | % activity [%]
FAKLAARLYRKALARQLGVAA [MMI-0300] | 126
HRRIKAWLKKIKALARQLGVAA (Mammal) [MMI-0500] | 194
KAFAKLAARLYRKALARQLGVAA [MMI-0400] | 143
YARAAARQARAKALARQLGVAA [MMI-0100] | 79

Target: WNK2(h) (Homo sapiens, UniProt Q9Y3S1)
Test: Kinase Profiling Assay
Type: biochemical
Conditions: peptide 100 μM
Method in brief: as §1

Chain of WNK2(h) (Q9Y3S1 whole entry): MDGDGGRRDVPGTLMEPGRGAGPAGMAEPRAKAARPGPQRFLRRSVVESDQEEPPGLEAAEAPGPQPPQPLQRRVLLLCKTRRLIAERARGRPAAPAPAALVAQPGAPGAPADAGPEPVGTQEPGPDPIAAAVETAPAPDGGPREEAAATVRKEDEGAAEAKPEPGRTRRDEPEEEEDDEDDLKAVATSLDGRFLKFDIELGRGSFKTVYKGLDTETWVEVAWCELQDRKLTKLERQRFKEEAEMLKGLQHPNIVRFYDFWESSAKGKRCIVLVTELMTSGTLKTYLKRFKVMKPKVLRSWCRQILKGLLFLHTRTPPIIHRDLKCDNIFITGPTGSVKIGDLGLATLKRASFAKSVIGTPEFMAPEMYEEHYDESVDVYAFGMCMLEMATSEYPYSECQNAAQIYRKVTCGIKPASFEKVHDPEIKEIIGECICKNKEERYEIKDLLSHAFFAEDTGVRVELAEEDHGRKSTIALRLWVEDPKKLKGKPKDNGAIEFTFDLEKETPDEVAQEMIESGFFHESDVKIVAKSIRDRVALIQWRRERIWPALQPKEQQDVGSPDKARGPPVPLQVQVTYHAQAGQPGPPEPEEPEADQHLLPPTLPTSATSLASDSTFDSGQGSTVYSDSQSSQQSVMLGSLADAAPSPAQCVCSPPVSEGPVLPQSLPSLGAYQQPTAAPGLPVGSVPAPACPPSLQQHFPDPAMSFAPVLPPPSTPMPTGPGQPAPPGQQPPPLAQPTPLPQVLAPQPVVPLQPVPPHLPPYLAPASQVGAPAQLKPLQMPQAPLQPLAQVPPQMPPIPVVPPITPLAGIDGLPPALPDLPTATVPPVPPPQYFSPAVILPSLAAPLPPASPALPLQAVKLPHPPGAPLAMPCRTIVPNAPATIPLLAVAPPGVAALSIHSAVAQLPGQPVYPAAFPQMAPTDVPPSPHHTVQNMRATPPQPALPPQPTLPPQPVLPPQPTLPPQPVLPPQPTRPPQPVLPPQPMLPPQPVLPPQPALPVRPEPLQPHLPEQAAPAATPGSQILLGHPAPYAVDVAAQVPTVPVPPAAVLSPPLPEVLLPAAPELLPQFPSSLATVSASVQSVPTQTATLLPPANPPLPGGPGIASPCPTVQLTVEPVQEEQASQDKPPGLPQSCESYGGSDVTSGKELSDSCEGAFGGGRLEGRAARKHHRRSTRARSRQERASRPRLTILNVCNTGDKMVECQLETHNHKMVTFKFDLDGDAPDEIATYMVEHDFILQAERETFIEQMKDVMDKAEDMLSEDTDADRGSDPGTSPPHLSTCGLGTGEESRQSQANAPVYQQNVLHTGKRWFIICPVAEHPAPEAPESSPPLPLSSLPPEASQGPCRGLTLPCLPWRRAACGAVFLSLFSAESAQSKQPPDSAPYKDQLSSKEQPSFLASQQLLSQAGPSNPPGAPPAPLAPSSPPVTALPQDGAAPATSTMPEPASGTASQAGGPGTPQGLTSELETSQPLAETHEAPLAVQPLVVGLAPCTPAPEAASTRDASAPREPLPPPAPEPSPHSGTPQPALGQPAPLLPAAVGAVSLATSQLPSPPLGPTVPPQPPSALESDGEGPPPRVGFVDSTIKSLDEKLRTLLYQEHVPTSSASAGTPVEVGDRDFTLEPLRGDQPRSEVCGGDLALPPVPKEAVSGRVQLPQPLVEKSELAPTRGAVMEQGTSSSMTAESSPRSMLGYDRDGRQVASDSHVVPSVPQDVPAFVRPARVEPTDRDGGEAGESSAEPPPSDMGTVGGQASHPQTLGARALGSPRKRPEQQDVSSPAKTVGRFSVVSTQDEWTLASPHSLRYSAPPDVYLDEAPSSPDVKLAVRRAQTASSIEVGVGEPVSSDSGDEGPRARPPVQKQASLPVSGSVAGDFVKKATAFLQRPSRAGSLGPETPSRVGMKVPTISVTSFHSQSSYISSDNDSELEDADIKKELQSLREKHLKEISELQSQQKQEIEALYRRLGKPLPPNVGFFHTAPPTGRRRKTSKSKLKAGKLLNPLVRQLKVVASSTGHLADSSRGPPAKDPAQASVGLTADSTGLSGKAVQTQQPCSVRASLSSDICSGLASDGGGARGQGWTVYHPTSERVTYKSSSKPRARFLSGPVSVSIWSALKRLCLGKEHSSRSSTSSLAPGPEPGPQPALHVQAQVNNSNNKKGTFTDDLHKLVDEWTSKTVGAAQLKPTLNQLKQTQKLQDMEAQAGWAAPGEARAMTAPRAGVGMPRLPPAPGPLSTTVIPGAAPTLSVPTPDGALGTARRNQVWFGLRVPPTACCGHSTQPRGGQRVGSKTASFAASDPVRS

Sequence | % activity [%]
FAKLAARLYRKALARQLGVAA [MMI-0300] | 64
HRRIKAWLKKIKALARQLGVAA (Mammal) [MMI-0500] | 8
KAFAKLAARLYRKALARQLGVAA [MMI-0400] | 54
YARAAARQARAKALARQLGVAA [MMI-0100] | 95
YARAAARQARAKALNRQLGVA (Mammal) [MMI-0200] | 94

Target: T5, ASK1(h) (Homo sapiens, UniProt Q99683)
T5 sequence (Q99683 1-1374): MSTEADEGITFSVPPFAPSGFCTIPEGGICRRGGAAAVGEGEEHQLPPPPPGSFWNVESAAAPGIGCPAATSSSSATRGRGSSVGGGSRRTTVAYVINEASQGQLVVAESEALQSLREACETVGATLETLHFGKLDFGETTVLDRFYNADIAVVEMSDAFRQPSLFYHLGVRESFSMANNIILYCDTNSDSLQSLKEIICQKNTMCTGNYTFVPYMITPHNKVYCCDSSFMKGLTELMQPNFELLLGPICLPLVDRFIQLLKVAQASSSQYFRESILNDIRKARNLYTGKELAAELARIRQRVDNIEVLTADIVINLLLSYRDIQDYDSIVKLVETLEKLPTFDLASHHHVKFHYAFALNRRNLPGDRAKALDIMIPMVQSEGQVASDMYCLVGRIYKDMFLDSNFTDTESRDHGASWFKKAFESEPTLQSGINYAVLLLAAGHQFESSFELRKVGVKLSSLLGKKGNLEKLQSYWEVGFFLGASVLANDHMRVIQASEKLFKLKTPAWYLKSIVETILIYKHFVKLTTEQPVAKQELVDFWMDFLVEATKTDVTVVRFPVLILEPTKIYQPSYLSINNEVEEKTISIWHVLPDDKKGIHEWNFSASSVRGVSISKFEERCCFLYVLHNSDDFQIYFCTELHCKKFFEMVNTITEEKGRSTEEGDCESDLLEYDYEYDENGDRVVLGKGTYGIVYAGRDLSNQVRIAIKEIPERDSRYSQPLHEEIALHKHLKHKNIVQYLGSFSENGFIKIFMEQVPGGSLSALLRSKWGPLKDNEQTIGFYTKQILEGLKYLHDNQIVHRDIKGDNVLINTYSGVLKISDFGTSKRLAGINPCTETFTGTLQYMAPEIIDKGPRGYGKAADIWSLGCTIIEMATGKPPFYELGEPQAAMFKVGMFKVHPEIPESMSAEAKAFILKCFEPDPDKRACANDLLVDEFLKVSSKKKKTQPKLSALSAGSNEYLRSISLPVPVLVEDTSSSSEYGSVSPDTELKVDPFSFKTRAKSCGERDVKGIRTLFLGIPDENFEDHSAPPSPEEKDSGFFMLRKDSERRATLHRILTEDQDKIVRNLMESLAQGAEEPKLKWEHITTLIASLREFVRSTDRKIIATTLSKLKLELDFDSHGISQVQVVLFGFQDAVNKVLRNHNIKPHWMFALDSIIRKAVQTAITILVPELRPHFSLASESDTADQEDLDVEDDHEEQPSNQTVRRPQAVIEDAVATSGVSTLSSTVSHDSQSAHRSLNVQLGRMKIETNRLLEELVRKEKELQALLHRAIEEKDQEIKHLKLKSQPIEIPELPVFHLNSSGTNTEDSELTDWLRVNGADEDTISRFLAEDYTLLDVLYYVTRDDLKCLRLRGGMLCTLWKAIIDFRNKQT
Test: Kinase Profiling Assay
Type: biochemical
Conditions: peptide 100 μM
Method in brief: as §1

Sequence | % activity [%]
FAKLAARLYRKALARQLGVAA [MMI-0300] | 80
HRRIKAWLKKIKALARQLGVAA (Mammal) [MMI-0500] | -4
KAFAKLAARLYRKALARQLGVAA [MMI-0400] | 69
YARAAARQARAKALNRQLGVA (Mammal) [MMI-0200] | 101

Target: CHK2(h) (Homo sapiens, UniProt O96017)
Test: Kinase Profiling Assay
Type: biochemical
Conditions: peptide 100 μM
Method in brief: as §1

Chain of CHK2(h) (O96017 whole entry): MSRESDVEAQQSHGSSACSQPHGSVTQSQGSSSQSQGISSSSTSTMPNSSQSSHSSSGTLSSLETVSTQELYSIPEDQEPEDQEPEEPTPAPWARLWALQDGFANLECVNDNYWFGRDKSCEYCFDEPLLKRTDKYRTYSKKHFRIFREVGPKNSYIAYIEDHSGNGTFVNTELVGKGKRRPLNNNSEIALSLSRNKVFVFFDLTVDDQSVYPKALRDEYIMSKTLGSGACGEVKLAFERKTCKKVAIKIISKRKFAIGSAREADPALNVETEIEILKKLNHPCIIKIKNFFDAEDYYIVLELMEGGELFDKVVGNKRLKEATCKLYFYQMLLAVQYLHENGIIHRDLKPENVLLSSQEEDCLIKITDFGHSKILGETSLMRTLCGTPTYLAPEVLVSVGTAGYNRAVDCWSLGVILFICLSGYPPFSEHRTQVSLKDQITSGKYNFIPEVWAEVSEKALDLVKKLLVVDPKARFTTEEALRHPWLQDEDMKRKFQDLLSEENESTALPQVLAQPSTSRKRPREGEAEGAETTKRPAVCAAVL

Sequence | % activity [%]
FAKLAARLYRKALARQLGVAA [MMI-0300] | 66
HRRIKAWLKKIKALARQLGVAA (Mammal) [MMI-0500] | 13
KAFAKLAARLYRKALARQLGVAA [MMI-0400] | 54

Target: WNK3(h) (Homo sapiens, UniProt Q9BYP7)
Test: Kinase Profiling Assay
Type: biochemical
Conditions: peptide 100 μM
Method in brief: as §1

Chain of WNK3(h) (Q9BYP7 whole entry): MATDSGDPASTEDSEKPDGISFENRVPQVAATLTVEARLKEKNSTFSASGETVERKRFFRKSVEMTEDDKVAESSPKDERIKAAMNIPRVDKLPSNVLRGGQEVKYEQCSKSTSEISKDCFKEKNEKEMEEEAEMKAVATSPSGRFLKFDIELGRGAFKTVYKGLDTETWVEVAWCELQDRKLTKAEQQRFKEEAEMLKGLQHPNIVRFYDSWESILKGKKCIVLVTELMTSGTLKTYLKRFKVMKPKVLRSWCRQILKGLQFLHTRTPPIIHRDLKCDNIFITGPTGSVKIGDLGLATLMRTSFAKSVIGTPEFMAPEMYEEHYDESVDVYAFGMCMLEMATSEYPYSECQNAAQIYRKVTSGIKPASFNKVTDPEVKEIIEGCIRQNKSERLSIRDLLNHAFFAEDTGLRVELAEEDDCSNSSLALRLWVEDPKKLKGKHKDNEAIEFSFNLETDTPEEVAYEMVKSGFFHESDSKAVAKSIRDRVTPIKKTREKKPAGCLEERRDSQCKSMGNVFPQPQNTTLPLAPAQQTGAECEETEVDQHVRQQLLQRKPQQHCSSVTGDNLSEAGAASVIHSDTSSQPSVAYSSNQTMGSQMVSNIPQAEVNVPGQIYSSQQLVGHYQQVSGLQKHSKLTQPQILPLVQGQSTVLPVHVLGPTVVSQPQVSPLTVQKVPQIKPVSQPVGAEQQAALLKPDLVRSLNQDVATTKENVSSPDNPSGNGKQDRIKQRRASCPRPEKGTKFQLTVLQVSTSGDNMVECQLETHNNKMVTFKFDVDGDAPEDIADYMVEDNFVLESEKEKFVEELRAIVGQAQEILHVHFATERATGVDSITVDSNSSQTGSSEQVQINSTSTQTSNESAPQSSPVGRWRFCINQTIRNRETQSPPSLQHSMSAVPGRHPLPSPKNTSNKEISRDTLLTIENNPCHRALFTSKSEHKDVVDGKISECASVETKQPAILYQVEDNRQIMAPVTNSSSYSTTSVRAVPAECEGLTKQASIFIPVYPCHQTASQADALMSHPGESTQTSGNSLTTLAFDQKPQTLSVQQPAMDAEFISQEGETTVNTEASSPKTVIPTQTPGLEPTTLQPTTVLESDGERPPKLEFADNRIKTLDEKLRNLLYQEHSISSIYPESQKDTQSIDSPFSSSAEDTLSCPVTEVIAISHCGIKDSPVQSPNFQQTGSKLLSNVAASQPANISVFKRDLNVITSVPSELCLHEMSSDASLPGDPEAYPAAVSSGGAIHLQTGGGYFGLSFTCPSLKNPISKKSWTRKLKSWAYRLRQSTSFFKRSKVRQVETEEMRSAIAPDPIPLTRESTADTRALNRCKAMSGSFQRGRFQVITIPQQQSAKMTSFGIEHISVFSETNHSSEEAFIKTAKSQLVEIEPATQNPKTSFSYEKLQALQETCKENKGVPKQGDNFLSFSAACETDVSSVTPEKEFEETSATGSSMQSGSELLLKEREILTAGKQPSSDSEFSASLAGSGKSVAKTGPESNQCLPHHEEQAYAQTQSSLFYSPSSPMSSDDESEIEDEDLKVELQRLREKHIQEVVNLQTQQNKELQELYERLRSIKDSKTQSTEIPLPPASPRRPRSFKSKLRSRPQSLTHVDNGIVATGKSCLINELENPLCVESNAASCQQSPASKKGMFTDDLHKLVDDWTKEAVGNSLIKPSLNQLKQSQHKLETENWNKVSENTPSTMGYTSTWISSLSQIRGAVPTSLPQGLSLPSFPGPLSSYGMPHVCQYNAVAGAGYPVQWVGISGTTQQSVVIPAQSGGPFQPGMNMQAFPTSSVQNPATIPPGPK

Sequence | % activity [%]
FAKLAARLYRKALARQLGVAA [MMI-0300] | 77
HRRIKAWLKKIKALARQLGVAA (Mammal) [MMI-0500] | 9
KAFAKLAARLYRKALARQLGVAA [MMI-0400] | 74
YARAAARQARAKALARQLGVAA [MMI-0100] | 100
YARAAARQARAKALNRQLGVA (Mammal) [MMI-0200] | 97

Target: T6, MAPK1(h) (Homo sapiens, UniProt P27361)
T6 construct: purchased Millipore
Test: Kinase Profiling Assay
Type: biochemical
Conditions: peptide 100 μM
Method in brief: as §1

Sequence | % activity [%]
KAFAKLAARLYRKALARQLGVAA [MMI-0400] | 100
YARAAARQARAKALARQLGVAA [MMI-0100] | 108
YARAAARQARAKALNRQLGVA (Mammal) [MMI-0200] | 97
